Results: US20240018229A1 (published 2024)

Key:
[1] = biological target: T1, recombinant human CXCL1 protein (human, UniProt P09341 35-107); assay: apparent affinity-binding constant, in PBS; method not stated; in PBS
T1 construct: also called human chemokine CXCL1; soluble recombinant human CXCL1
T1 sequence: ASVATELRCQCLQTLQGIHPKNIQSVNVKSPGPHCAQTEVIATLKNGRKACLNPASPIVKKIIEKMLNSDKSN

[2] = biological target: T1, recombinant human CXCL1 protein; assay: apparent KD from the absorbance (450 nm) curve in human serum diluted 1:4
[3] = biological target: T1, recombinant human CXCL1 protein; assay: apparent affinity-binding constant, in serum 1:40 dilution; method not stated; serum, 1:40 dilution
[4] = biological target: T2, mouse CXCL1 (mouse, UniProt P12850 25-96, limits assumed); assay: immunoblot strip (the text does not name the assay); 10, 20 and 30 ng of CXCL1 of each species loaded
T2 sequence (looked up): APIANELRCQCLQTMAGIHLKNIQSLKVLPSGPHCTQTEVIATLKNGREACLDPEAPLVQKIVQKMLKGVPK

[5] = biological target: T3, rat CXCL1 (rat, UniProt P14095 25-96, limits assumed); assay: as above
T3 sequence (looked up): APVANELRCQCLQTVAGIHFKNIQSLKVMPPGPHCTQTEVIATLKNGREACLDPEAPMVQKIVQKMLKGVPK

[6] = biological target: T1, recombinant human CXCL1 protein; assay: ELISA, human CXCL1 coated 30 ng per well, IgG 1/10 dilute original, donkey anti-human HRP, TMB
Procedure: The human CXCL1 protein was coated onto 96-well, 30 ng for well at 4° C. overnight. The plate was blocked by 3% skim milk in PBS 2 h at room temperature. The plate was washed 3 times with PBST and applied anti-human CXCL1 humanized version IgG antibodies were diluted 1/100 and 1/10 in PBS and subjected into antigen coated plate for 1 h at room temperature. The donkey anti-human monoclonal antibody with HRP conjugate antibody was diluted 1/3000 and applied for 45 min at room temperature, afterwards washed 3 times with PBST and developed with TMB solution.

B1: anti-CXCL1 neutralizing monoclonal mouse antibody (HL2401) (antibody, V domains shown)
VH: EVKLVESGAELVKPGASVKLSCKASGYTFTSYYIYWVKQRPGQGLEWIGEIDPSHGGPTFNEKFKNKATLTVDKSSSTAYMQLSSLTSDDSAVYYCTRESGTGAMDYWGQGTTLTVSS
VL: DIVLTQSPASLAVSLGQRATISCKASQSVDYDGDSYVNWYQQKPGQPPKLLIYAASNLESRIPARFSGSGSGTDFTLNILPVEEDDGATYYCQQSSEDPWTFGGGTKLEIKR
notes: also called CXCL1 mAb (HL2401); mouse anti-human CXCL1 antibody HL2401
Kd [1]: 0.176 µg/mL | Kd [2]: 0.387 µg/mL | Kd [3]: 0.252 µg/mL | binding result [4]: no binding (tested: 30 ng) | binding result [5]: no binding (tested: 30 ng)

B2: Hum2401 IgG antibody (antibody, V domains shown)
VH: QVQLVESGGGLVQPGGSLRLSCKASGYTFTSYYIYWVRQAPGKGLEWIGEIDPSHGGPTFNEKFKNRFTISRDNSKNTLYLQMNSLRAEDTAVYYCTRESGTGAMDYWGQGTLVTVSS
VL: DIQMTQSPSSLSASVGDRATISCKASQSVDYDGDSYVNWYQQKPGKAPKLLIYAASNLESGIPSRFSGSGSGTDFTLTISSLQPEDFATYYCQQSSEDPWTFGQGTKVEIKR
notes: also called Hum2401 Ab; Pcmvdhfr-Hum2401(H+L)
ELISA signals [6]: 2.1
